Measurements from publication PMC11235164.

Biological target: T1, trigger factor (Escherichia coli), P0A850
T1 chain: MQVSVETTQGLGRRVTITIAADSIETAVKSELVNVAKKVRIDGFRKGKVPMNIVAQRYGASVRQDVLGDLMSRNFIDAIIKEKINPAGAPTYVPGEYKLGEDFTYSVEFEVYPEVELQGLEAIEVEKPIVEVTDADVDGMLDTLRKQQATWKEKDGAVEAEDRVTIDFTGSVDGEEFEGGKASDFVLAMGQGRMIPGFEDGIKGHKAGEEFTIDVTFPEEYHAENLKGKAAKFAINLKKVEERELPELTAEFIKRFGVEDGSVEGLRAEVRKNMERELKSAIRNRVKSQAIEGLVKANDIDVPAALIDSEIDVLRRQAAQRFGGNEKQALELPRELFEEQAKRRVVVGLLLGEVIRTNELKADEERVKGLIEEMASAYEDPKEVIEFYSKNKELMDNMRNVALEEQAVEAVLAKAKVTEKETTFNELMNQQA
Assay: microfluidic diffusional sizing
Conditions: remark: other sources report otherwise

B1: trigger factor, P0A850 (protein)
chain: MQVSVETTQGLGRRVTITIAADSIETAVKSELVNVAKKVRIDGFRKGKVPMNIVAQRYGASVRQDVLGDLMSRNFIDAIIKEKINPAGAPTYVPGEYKLGEDFTYSVEFEVYPEVELQGLEAIEVEKPIVEVTDADVDGMLDTLRKQQATWKEKDGAVEAEDRVTIDFTGSVDGEEFEGGKASDFVLAMGQGRMIPGFEDGIKGHKAGEEFTIDVTFPEEYHAENLKGKAAKFAINLKKVEERELPELTAEFIKRFGVEDGSVEGLRAEVRKNMERELKSAIRNRVKSQAIEGLVKANDIDVPAALIDSEIDVLRRQAAQRFGGNEKQALELPRELFEEQAKRRVVVGLLLGEVIRTNELKADEERVKGLIEEMASAYEDPKEVIEFYSKNKELMDNMRNVALEEQAVEAVLAKAKVTEKETTFNELMNQQA
- Kd: 1500 nM
